# Source: article PMC6283856 (2018)
# B1: ubiquitin-specific peptidase 17 (USP17), wild type [not stated] / TNFR-associated factor 2 (TRAF2) [not stated] (parent complex)
# chain 1: MEDDSLYLGGEWQFNHFSKLTSSRPDAAFAEIQRTSLPEKSPLSSEARVDLCDDLAPVARQLAPRKKLPLSSRRPAAVGAGLQNMGNTCYENASLQCLTYTPPLANYMLSREHSQTCQRPKCCMLCTMQAHITWALHSPGHVIQPSQALAAGFHRGKQEDAHEFLMFTVDAMKKACLPGHKQVDHHSKDTTLIHQIFGGCWRSQIKCLHCHGISDTFDPYLDIALDIQAAQSVKQALEQLVKPEELNGENAYHCGLCLQRAPASKTLTLHTSAKVLILVLKRFSDVTGNKLAKNVQYPECLDMQPYMSQQNTGPLVYVLYAVLVHAGWSCHDGHYFSYVKAQEGQWYKMDDAKVTACSITSVLSQQAYVLFYIQKSEWERHSESVSRGREPRALGAEDTDRRATQGELKRDHPCLQAPELDERLVERATQESTLDHWKFPQEQNKTKPEFNVRKVEGTLPPNVLVIHQSKYKCGMKNHHPEQQSSLLNLSSTTRTDQESVNTGTLASLQGRTRRSKGKNKHSKRALLVCQ
# chain 2: MAAASVTPPGSLELLQPGFSKTLLGTKLEAKYLCSACRNVLRRPFQAQCGHRYCSFCLASILSSGPQNCAACVHEGIYEEGISILESSSAFPDNAARREVESLPAVCPSDGCTWKGTLKEYESCHEGRCPLMLTECPACKGLVRLGEKERHLEHECPERSLSCRHCRAPCCGADVKAHHEVCPKFPLTCDGCGKKKIPREKFQDHVKTCGKCRVPCRFHAIGCLETVEGEKQQEHEVQWLREHLAMLLSSVLEAKPLLGDQSHAGSELLQRCESLEKKTATFENIVCVLNREVERVAMTAEACSRQHRLDQDKIEALSSKVQQLERSIGLKDLAMADLEQKVLEMEASTYDGVFIWKISDFARKRQEAVAGRIPAIFSPAFYTSRYGYKMCLRIYLNGDGTGRGTHLSLFFVVMKGPNDALLRWPFNQKVTLMLLDQNNREHVIDAFRPDVTSSSFQRPVNDMNIASGCPLFCPVSKMEAKNSYVRDDAIFIKAIVDLTGL
# Variants of: B1
# Experiment: co-immunoprecipitation (IP: Myc, IB: Flag) with band quantification; coexpressed in HEK293 cells; parent: 100; read off a plot
row,percent of parent,Variant
1,~68%,chain 1 P480L
2,~40%,chain 1 S484L
3,~33%,chain 1 Q430A
